Legend:
[1] = biological target: hFcRn (human neonatal Fc receptor) (human) (UniProt P55899); test: SPR; Bia3000; hFcRn immobilised on CM5 chip (<200 RU); increasing concentrations of antibody injected over 180 s, dissociation 400 s; 25 °C; 50 mM phosphate, 150 mM NaCl, 0.05% P20, pH 7; multi-cycle kinetics, bivalent model fit
[2] = biological target: hFcRn (human neonatal Fc receptor) (human) (UniProt P55899); test: SPR; bivalent fit, kd1
[3] = biological target: hFcRn (human neonatal Fc receptor) (human) (UniProt P55899); test: SPR; bivalent fit, kd2 (second site)
[4] = biological target: hFcRn (human neonatal Fc receptor) (human) (UniProt P55899); test: SPR; Bia3000; hFcRn immobilised on CM5 chip (<200 RU); increasing concentrations of antibody injected over 180 s, dissociation 400 s; 25 °C; 50 mM phosphate, 150 mM NaCl, 0.05% P20, pH 6; multi-cycle kinetics, bivalent model fit
[5] = biological target: hFcRn (human neonatal Fc receptor) (human) (UniProt P55899); test: SPR; pH 7.0, bivalent fit, kd1

Kd [1]	koff [2]	koff [3]	Kd [4]	Substance	also measured
0.62 µM			0.045 µM	B5 (tocilizumab variant T256Y/H285Q/N286D/V308A/N434Y) (antibody)	
	0.000658 s⁻¹	0.0383 s⁻¹		T8 (tocilizumab variant M252Y/N286E/T307Q/V308P/Q311A/N434Y/Y436V)	
0.0078 µM			0.0013 µM	T8 (tocilizumab variant M252Y/N286E/T307Q/V308P/Q311A/N434Y/Y436V) (antibody)	
			0.38 µM	Tocilizumab (antibody)	

Continued, substance first:

Substance	Kd [1]	koff [2]	koff [3]	Kd [4]	also measured
A3 (tocilizumab variant M252W/M428K/N434W) (antibody)	0.57 µM				
B5 (tocilizumab variant T256Y/H285Q/N286D/V308A/N434Y)		0.0439 s⁻¹	0.000765 s⁻¹		
C7 (tocilizumab variant T256E/N286H/K288E/V308P/L309D/N434Y/Y436K)		0.0053 s⁻¹	6.52e-05 s⁻¹		
C7 (tocilizumab variant T256E/N286H/K288E/V308P/L309D/N434Y/Y436K) (antibody)	0.16 µM			0.034 µM	
T3 (tocilizumab variant M252Y/T307D/N434Y)					koff [5]: 0.0263 s⁻¹
T3 (tocilizumab variant M252Y/T307D/N434Y) (antibody)	0.38 µM			0.013 µM	

From publication PMC10052518
